# B1: ss-dsDNA J1/J2 (mixed)
# DNA 1: TTTTTTTTTTTTTTTTTTTTTTTTTTTTTTATCGATGTCTCTAGACAGCTGCTCAGGATTGATCTGTAATTTTTTTTTTTTTTTTTTTTTTTTTTTTTT
# DNA 2: ATCCTGAGCAGCTGTCTAGAGACATCGAT
# B2: 44 bp dsDNA P1/P7 (FAM) (dsDNA)
# DNA 1: ATCGATGTCTCTAGACAGCTGCTCAGGATTGATCTGTAATGGCC
# DNA 2: GGCCATTACAGATCAATCCTGAGCAGCTGTCTAGAGACATCGAT
# Key:
# FANCD2 WT;FANCI WT [1] = target: T1, FANCD2 WT;FANCI WT (Gallus gallus;Gallus gallus, UniProt Q68Y81;B0I564 1-1439;1-1338, |); assay: cryo-EM; stalled state; 24 bp duplex modelled; EMSA: 50 mM HEPES pH 8.0, 75 mM NaCl, 1 mM TCEP, 20 nM DNA, 20-22 C; switchSENSE: 20 mM HEPES pH 8.0, 75 mM NaCl, 1 mM TCEP, 25 C; cryo-EM and single-molecule:; conditions: protein: recombinant;recombinant; copies: 1;1; 29 bp duplex; strand 1 has 5' ssDNA 30 nt and 3' ssDNA 40 nt
# T1 sequence (Q68Y81 whole entry, chain 1 of 2): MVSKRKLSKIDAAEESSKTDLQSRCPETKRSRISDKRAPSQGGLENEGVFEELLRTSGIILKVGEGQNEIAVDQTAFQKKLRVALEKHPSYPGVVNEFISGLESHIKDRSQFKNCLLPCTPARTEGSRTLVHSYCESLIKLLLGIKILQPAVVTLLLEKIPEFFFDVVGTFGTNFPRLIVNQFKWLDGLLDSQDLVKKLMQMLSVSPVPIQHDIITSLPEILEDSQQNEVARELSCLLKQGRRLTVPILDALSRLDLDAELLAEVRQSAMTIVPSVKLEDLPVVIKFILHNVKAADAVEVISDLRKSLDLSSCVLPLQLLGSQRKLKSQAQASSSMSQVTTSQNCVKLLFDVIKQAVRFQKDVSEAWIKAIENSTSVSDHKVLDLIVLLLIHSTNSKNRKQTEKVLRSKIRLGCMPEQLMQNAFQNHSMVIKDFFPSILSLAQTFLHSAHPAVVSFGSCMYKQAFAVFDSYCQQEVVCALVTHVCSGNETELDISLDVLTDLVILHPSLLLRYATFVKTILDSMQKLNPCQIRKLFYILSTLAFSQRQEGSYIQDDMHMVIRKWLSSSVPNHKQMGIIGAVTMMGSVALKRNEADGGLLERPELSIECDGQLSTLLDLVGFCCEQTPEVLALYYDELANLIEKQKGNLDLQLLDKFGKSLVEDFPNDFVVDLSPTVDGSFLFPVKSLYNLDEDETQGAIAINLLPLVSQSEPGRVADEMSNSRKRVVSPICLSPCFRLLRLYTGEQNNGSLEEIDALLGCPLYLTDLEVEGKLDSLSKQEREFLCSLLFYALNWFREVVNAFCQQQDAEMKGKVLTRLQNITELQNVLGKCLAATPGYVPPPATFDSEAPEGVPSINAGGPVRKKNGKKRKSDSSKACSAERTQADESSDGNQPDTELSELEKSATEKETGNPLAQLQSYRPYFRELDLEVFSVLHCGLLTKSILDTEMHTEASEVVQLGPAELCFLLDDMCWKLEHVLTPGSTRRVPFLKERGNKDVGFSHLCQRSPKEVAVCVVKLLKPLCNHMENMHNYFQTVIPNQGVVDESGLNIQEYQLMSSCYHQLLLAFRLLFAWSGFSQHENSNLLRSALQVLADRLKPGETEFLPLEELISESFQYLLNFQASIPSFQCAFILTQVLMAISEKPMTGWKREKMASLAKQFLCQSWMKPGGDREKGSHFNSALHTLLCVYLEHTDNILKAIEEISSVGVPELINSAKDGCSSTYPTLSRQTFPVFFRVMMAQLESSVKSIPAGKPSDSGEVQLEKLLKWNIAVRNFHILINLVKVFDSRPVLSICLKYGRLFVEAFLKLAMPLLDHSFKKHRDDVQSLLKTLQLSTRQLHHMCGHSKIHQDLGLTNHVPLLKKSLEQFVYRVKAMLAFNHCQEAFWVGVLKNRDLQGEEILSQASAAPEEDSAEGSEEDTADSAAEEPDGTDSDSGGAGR
# T1 sequence (B0I564 whole entry, chain 2 of 2): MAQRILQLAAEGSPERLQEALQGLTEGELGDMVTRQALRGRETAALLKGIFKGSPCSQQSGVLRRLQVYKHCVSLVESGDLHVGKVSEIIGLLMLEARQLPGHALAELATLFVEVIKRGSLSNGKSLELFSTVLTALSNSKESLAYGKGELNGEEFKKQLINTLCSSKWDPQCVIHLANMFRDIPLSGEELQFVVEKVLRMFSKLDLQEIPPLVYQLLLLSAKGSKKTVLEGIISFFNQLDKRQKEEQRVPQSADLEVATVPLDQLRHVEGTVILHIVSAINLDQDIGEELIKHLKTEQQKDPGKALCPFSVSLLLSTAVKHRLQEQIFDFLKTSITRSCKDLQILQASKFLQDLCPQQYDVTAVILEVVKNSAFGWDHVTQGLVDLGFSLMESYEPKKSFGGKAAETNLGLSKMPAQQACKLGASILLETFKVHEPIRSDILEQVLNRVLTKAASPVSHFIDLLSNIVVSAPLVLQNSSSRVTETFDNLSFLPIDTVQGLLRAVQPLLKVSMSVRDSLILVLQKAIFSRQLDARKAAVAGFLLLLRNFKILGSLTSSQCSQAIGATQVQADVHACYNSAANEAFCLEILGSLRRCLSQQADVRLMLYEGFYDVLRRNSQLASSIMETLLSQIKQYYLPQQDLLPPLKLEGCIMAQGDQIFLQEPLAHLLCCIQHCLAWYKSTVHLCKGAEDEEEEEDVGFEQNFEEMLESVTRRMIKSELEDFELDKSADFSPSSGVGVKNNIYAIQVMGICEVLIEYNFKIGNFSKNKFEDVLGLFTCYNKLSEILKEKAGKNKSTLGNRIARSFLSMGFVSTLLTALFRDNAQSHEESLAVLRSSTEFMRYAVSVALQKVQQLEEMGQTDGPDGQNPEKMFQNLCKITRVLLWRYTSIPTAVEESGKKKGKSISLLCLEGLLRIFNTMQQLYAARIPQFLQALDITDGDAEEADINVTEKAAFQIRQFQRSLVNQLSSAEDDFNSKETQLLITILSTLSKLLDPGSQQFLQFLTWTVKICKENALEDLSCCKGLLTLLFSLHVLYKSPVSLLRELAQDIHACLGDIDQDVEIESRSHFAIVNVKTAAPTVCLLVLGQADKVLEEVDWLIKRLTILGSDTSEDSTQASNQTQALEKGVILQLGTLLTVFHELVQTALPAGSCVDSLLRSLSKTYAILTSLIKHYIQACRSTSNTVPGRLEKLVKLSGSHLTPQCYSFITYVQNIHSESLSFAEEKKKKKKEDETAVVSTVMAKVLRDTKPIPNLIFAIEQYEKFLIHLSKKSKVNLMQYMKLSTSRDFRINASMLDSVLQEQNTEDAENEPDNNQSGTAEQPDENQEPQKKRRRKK
# [2] = target: FANCD2-ybbR-Cy3;FANCI-ybbR-Cy5 (Gallus gallus;Gallus gallus, UniProt Q68Y81;B0I564 1-1439;1-1338, |); assay: EMSA; double-labelled D2-I, affinity comparable to unlabelled; EMSA: 50 mM HEPES pH 8.0, 75 mM NaCl, 1 mM TCEP, 20 nM DNA, 20-22 C; switchSENSE: 20 mM HEPES pH 8.0, 75 mM NaCl, 1 mM TCEP, 25 C; cryo-EM and single-molecule:; conditions: protein: recombinant;recombinant; copies: 1;1; label: 3' FAM on P1; blunt
# FANCD2-ybbR-Cy3;FANCI-ybbR-Cy5, sequence (Q68Y81 whole entry, chain 1 of 2): as the sequence (Q68Y81 whole entry, chain 1 of 2) above
# FANCD2-ybbR-Cy3;FANCI-ybbR-Cy5, sequence (B0I564 whole entry, chain 2 of 2): as the sequence (B0I564 whole entry, chain 2 of 2) above
# FANCD2 WT;FANCI WT [3] = target: T1, FANCD2 WT;FANCI WT; assay: EMSA; unlabelled D2-I; EMSA: 50 mM HEPES pH 8.0, 75 mM NaCl, 1 mM TCEP, 20 nM DNA, 20-22 C; switchSENSE: 20 mM HEPES pH 8.0, 75 mM NaCl, 1 mM TCEP, 25 C; cryo-EM and single-molecule:; conditions: protein: recombinant;recombinant; copies: 1;1; label: 3' FAM on P1; blunt
Binder,binding result (FANCD2 WT;FANCI WT [1]),binding result [2],binding result (FANCD2 WT;FANCI WT [3])
B1,binds,,
B2,,binds,binds
